The text below walks through data of patent US20130115627A1 (AGENCY FOR SCIENCE TECHNOLOGY AND RESEARCH, published 2013).

The target in the experiment is T1, PODXL on the surface of hESCs (human, UniProt O00592 23-558, glycosylated (sites not given)).
T1 construct: also called human embryonic stem cells
T1 sequence: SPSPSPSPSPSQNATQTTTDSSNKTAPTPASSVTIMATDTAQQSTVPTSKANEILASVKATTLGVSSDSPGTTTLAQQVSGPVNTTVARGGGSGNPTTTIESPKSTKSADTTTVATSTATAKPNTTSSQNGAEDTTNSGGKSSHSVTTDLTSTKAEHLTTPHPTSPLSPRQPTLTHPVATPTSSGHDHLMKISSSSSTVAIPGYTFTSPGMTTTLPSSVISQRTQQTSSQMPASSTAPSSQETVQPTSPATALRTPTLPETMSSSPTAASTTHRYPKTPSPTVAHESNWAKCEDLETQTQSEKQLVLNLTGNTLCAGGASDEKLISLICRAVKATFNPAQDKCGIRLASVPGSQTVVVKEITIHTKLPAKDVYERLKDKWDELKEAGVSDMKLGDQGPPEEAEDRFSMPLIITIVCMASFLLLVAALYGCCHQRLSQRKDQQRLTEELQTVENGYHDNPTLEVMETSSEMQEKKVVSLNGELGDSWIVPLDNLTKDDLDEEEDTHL
Description: kinetics of binding to PODXL on the surface of hESCs; method not stated.

B1: mAb 84 (antibody, V domains shown)
VH: QVQLQQSGGGLVQPGGSMKLSCVASGFTFSNYWMNWVRQSPEKGLEWVAEIRLKSNNYATHYAESVKGRFTISRDDSKSSVYLQMNNLRAEDTGIYYCTGERAWGQGTTVTVSS
VL: DIELTQSPAIMSASPGEKVTMTCSASSSVNYMYWYQQKPGSSPRLLIYDTSNLASGVPVRFSGSGSGTSYSLTISRMEAEDAATYYCQQWSSYPYTFGGGTKLEIKR
The term Kd denotes the free concentration of one partner at which half of the binding sites on the other are occupied at equilibrium, for simple one-to-one binding. A lower Kd goes with a tighter complex. Usually koff stands for a measure of how fast the partners let go of each other. The term kon denotes the rate constant with which the complex forms. High values mean fast association, low ones slow association. As for B1, the Kd worked out at 40 nM, the off-rate (koff) came to 0.0029 s⁻¹ and the on-rate (kon) was determined as 71000 M⁻¹ s⁻¹.
